Results: the supplement of paper PMC12764529
± gives the half width of the 95% confidence interval.

experiment: folding stability dG unfold from trypsin proteolysis; higher = more stable
Outline: (§1)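 Sequencing followed digestion of designed mini-proteins with trypsin and chymotrypsin, each at 11 concentrations in threefold dilutions together with a no-protease condition. The mini-proteins were under 80 residues, had no cysteine, sat in a PA-tagged cDNA display construct, and were kept only if AlphaFold2 dimer inter-PAE was above 15. From the counts, Bayesian fitting gave K50, and unfolding free energy was derived against a sequence-predicted unfolded-state K50 and a shared folded-state K50, per protease or combined.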

| Sequence | folding stability dG unfold |
| --- | --- |
| SAGGSATSIEYESPGVVETVSFTREPDGTLTVTVTVREPNGPVLKTLPTTETLPPDAGVTASVPLPSAGGSA [r15_950_JUSTAS] | 0.0919 ± 0.16 kcal/mol |
| SAGGSIVDRIRKILKEYGYTAQVERNGDGITIVVQFNKEQRKKIVSEIQEDFGYPIKIEVMPPGQELSAGGS [r16_514_TrROS] | 1.97 ± 0.06 kcal/mol |
| SAGGSAGGSGNSKLTATLTLEFYDPKTGKKIAKIELKPVITTLPNGTAKIDVEYKITFTNEDDSAGGSAGGS [r12_629_TrMRF] | 2.6 ± 0.14 kcal/mol |
| SAGVVEELLKEFPDVEKVTSSSYPGPKVSQYVIYFPTPSGKKVTIKITVTQPRLPSNSTTSELSIELNDSAG [r5_398_JUSTAS] | 2.11 ± 0.12 kcal/mol |
| SAGGMRIRIVVPPEMSPEEIAELLKKLFPDYEIKVEVKTVKVKVKDEETGEEYEVEVLVVEIEIKEKSAGGS [r16_828_TrROS_Hall] | 3.61 ± 0.18 kcal/mol |
| SAGGSAGGSARTLTLTFLTDSPEVAERFVRELREQKPLRVEASYRRLPDGRYLVTVTIHLDSAGGSAGGSAG [r3_273_TrMRF] | 3.21 ± 0.084 kcal/mol |
| SAGGSAMTVTKVGSETKTDPAKGIVTTTEITKLPTGGLTKTVTTTTIEGGKVKSSTTTTTAIPVGTSAGGSA [r15_283_JUSTAS] | -0.156 ± 0.061 kcal/mol |
| SGMPPVSFANLELVAVSPDGTVTVVRAELTGPDGERYVWTGSLSELLKRLEEEDLTLDNFKEGGLIVAVDSA [r9_1078_TrMRF] | 2.77 ± 0.06 kcal/mol |
| SAGGSAGGSAGGKMRLYRFNLKTNKIEEVEAEPGEVIKITFPGKEIVLVVKDGKIELIPSAGGSAGGSAGGS [r10_817_TrROS_Hall] | 0.464 ± 0.13 kcal/mol |
| MNIPLKEILDKAKAEGKPVVFPDGTKTLSFEPGGKATIEKPVEVPGKPGVPLETKTYTIDINEDGSVTVNDS [r1_284_JUSTAS] | -0.875 ± 0.17 kcal/mol |
| SAGKPGKTIKVTVPIPDSVKNAKIIVEYPNGKSKTITVPAGKNVTITFKVPGSSSVKVRVVLDDGSVIGSAG [r5_664_TrMRF] | 2.9 ± 0.075 kcal/mol |

experiment: folding stability dG unfold from chymotrypsin proteolysis; higher = more stable
Outline: as §1

| Sequence | folding stability dG unfold |
| --- | --- |
| SAGGSAGGSAKMIFVKNEDGTITMFTLNEDGYLTVTTVTLDKKTKKMTVETKTIKLTDPELLSAGGSAGGSA [r18_503_TrROS_Hall] | 2.46 ± 0.081 kcal/mol |
| SAGGPKTIMAMIPRDSPELRKALKWLEKAPPGEEVELKLPGKPIRITNIQPVDDWWMFSVKIPPGLKSAGGS [r16_404_TrROS] | 0.462 ± 0.31 kcal/mol |
| SAGGSAGGSAGKAKIVKIEKVKNKNGETYYIIKLEGKKEIFVIKDKNGKKKKIPLKELKPSAGGSAGGSAGG [r17_286_TrROS_Hall] | 2.37 ± 0.026 kcal/mol |
| SAGGSAGGSMEELPEGAELIREEDGVAVVRNENGELLVVRRVDGKLEVRRFPPGMSIEEALAKSAGGSAGGS [r12_605_TrROS_Hall] | 3.07 ± 0.04 kcal/mol |
| SAGGLENLENFELVETLTVKLPNGDKPVTLTLYRHPDGPAENVTSYEGKKYVFVVTDDSIEFFEGGTSAGGS [r16_711_TrMRF] | 1.24 ± 0.16 kcal/mol |
| SAGGSMSTSTLVRREIASVDPETGLRVVRVEVEEVDYGFDPKTGTVLGVSPVSPVSESVLLLPADAPPESAG [r5_903_JUSTAS] | -0.175 ± 0.22 kcal/mol |
| SAGGSFWVFVIEISVKFEQYGDPDGNWKFEIEKVDVKITEIIPIPPEMMDKLREAKAEGMEPEEILSAGGSA [r2_327_TrROS] | 3.49 ± 0.11 kcal/mol |
| SAGGSAGGSAGGMVELDPENGTLTVLVEVDGELYKVTIKFNPETNEIVSIEVEKLPELEESAGGSAGGSAGG [r7_343_TrROS_Hall] | 3.85 ± 0.31 kcal/mol |
| SAGGSAGGSAKPTYRVLVKNEDGEVLEAEVKVVDGKVEVTVNGKVYTFPKGAKIEIVKIEPVSAGGSAGGSA [r18_144_TrROS_Hall] | 2.92 ± 0.054 kcal/mol |
| SAGGSAGGSAGGSGVLNIDEVWEDPESDLYTVVTTGEDEGTRVFVFDKNGKLLAEADLPSAGGSAGGSAGGS [r4_259_TrMRF] | 0.405 ± 0.12 kcal/mol |
| SAGPVVLSPDDTVKIGKKELTFFSDGTVSVKYPDGTGESITVTVDPSSGNITLTETFTEPETGTTPVENSAG [r5_33_JUSTAS] | 1.48 ± 0.075 kcal/mol |
| SAGGSAGGSASMKKKKFVVKTEEEAEKVIAELKAKVPKGTEVEIYIKNEDGTLEKYAIIKISAGGSAGGSAG [r3_92_JUSTAS] | 3.15 ± 0.047 kcal/mol |
| SAGGMVNLRLYNPATGEPIDFPVPKDVVEEMLKNGDLAALEALFPGFPIAKVEVDEGEEVPAVPPDEASAGG [r13_629_TrMRF] | 0.0323 ± 0.15 kcal/mol |
| SAGGSAGGSEIKIEKAEITVEYDEETGVFRATITLPDGYRITAEFRLRPDGSLELTRVEIEEVSAGGSAGGS [r12_111_TrROS_Hall] | 5.37 ± 0.11 kcal/mol |
| SAGGSAGGPLKVELVKAEILPGNKIIRVYRAELPTETYLAVIELHLNPDGEILSAKIKVYPLPESAGGSAGG [r6_19_TrMRF] | 3.06 ± 0.052 kcal/mol |
| SEEVEIEIRIRVEVDSLEEARALAEALEELGFEVEVKVVERDGKLVVEVTIRIRVPAPPPPPLSEEELKASA [r9_863_TrROS_Hall] | 1.55 ± 0.14 kcal/mol |
| SAGGSAGGSAGGTITIPIYLDDKWITITRIELSPPDGKIKIEFTFNNRPREFDIPIPPGASAGGSAGGSAGG [r7_477_TrROS] | 2.71 ± 0.074 kcal/mol |
| SAGGSAGGSAGGGSVTIRVESPEEAVATAKELLEKLTGAKPEATPLNVVVEEPDGVATVESAGGSAGGSAGG [r7_387_JUSTAS] | -0.721 ± 0.18 kcal/mol |
| SAGGSAMTIEKREDGYLVITVDVPPGTSPEELAERLKKLFPNEEVTVTVVKDGKLVKEFVIKAEDLSAGGSA [r15_1047_TrROS_Hall] | 2.06 ± 0.034 kcal/mol |
| SAGGSAGGSAGAGKVVFEVDIKTFLGKRKDGSDAPKTIIEIKVFDIAPLDPNDPVLKALISAGGSAGGSAGG [r11_236_TrMRF] | 3.54 ± 0.15 kcal/mol |
| SAGGSAGGSAGGMEYSISNVTTETFPEGNKTVTVETYTFDDGGTITVTKENGKVLEVNPKSAGGSAGGSAGG [r7_552_JUSTAS] | 0.586 ± 0.062 kcal/mol |
